Assay results as given in US20170015742A1 (published 2017).

Target: recombinant human PDGF-BB (human, UniProt P01127 82-190)
Test: cell-based or functional assay

Chain of recombinant human PDGF-BB (P01127 82-190 limits assumed): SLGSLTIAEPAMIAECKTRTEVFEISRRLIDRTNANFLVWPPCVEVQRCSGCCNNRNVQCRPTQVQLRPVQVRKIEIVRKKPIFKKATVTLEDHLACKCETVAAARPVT

NIH-3T3 hPDGF-BB Potency IC50 [nM] | Binder
0.109 | 4G8.3-LS-9E8.4 (g) DVD-Ig (PR-1572106) (bispecific antibody, human IgG1, kappa, L234A L235A) heavy: EVQLVQSGSELKKPGASVKVSCKASGYTFTNYGMYWVRQAPGQGLEWMGWINTETGKPTYADDFKGRFVFSLDTSVSTAYLQISSLKAEDTAVYYCARTNYYYRSYIFYFDYWGQGTMVTVSSASTKGPSVFPLAPEVTLRESGPALVKPTQTLTLTCTFSGFSLSTYGMGVGWIRQPPGKALEWLANIWWDDDKYYNPSLKNRLTISKDTSKNQVVLTMTNMDPVDTATYYCARIESIGTTYSFDYWGQGTMVTVSSASTKGPSVFPLAPSSKSTSGGTAALGCLVKDYFPEPVTVSWNSGALTSGVHTFPAVLQSSGLYSLSSVVTVPSSSLGTQTYICNVNHKPSNTKVDKKVEPKSCDKTHTCPPCPAPEAAGGPSVFLFPPKPKDTLMISRTPEVTCVVVDVSHEDPEVKFNWYVDGVEVHNAKTKPREEQYNSTYRVVSVLTVLHQDWLNGKEYKCKVSNKALPAPIEKTISKAKGQPREPQVYTLPPSREEMTKNQVSLTCLVKGFYPSDIAVEWESNGQPENNYKTTPPVLDSDGSFFLYSKLTVDKSRWQQGNVFSCSVMHEALHNAYTQKSLSLSPGK light: DTVLTQSPATLSLSPGERATLSCRASESVSTHMHWYQQKPGQAPRLLIYGASNLESGVPARFSGSGSGTDFTLTISSLEPEDFAVYFCQQSWNDPFTFGQGTKLEIKRTVAAPEFVLTQSPGTLSLSPGERATLSCERSSGDIGDSYVSWYQQKPGQAPRLVIYADDQRPSGIPDRFSGSGSGTDFTLTISRLEPEDFAVYYCQSYDINIDIVFGGGTKVEIKRTVAAPSVFIFPPSDEQLKSGTASVVCLLNNFYPREAKVQWKVDNALQSGNSQESVTEQDSKDSTYSLSSTLTLSKADYEKHKVYACEVTHQGLSSPVTKSFNRGEC
0.176 | 4G8.3-LS-9E8.4E DVD-Ig (PR-1575835) (bispecific antibody, human IgG1, kappa, L234A L235A) heavy: EVQLVQSGSELKKPGASVKVSCKASGYTFTNYGMYWVRQAPGQGLEWMGWINTETGKPTYADDFKGRFVFSLDTSVSTAYLQISSLKAEDTAVYYCARTNYYYRSYIFYFDYWGQGTMVTVSSASTKGPSVFPLAPEVTLRESGPALVKPTQTLTLTCTFSGFSLSTYGMGVGWIRQPPGKALEWLANIWWDDDKYYNPSLKNRLTISKDTSKNQVVLTMTNMDPVDTATYYCARIESIGTTYSFDYWGQGTMVTVSSASTKGPSVFPLAPSSKSTSGGTAALGCLVKDYFPEPVTVSWNSGALTSGVHTFPAVLQSSGLYSLSSVVTVPSSSLGTQTYICNVNHKPSNTKVDKKVEPKSCDKTHTCPPCPAPEAAGGPSVFLFPPKPKDTLMISRTPEVTCVVVDVSHEDPEVKFNWYVDGVEVHNAKTKPREEQYNSTYRVVSVLTVLHQDWLNGKEYKCKVSNKALPAPIEKTISKAKGQPREPQVYTLPPSREEMTKNQVSLTCLVKGFYPSDIAVEWESNGQPENNYKTTPPVLDSDGSFFLYSKLTVDKSRWQQGNVFSCSVMHEALHNAYTQKSLSLSPGK light: DTVLTQSPATLSLSPGERATLSCRASESVSTHMHWYQQKPGQAPRLLIYGASNLESGVPARFSGSGSGTDFTLTISSLEPEDFAVYFCQQSWNDPFTFGQGTKLEIKRTVAAPEFVLTQSPGTLSLSPGERATLSCERSSGDIGESYVSWYQQKPGQAPRLVIYADDQRPSGIPDRFSGSGSGTDFTLTISRLEPEDFAVYYCQSYDINIDIVFGGGTKVEIKRTVAAPSVFIFPPSDEQLKSGTASVVCLLNNFYPREAKVQWKVDNALQSGNSQESVTEQDSKDSTYSLSSTLTLSKADYEKHKVYACEVTHQGLSSPVTKSFNRGEC
> 5 | CODV004 cross-over DVD-Ig (PR-1565051) (bispecific antibody, human IgG1, kappa, L234A L235A) heavy: not shown light: DIQMTQSPSSLSASVGDRVTITCSASQDISNYLNWYQQKPGKAPKVLIYFTSSLHSGVPSRFSGSGSGTDFTLTISSLQPEDFATYYCQQYSTVPWTFGQGTKVEIKGGGSGGGDFQLTQSPSSLSASVGDRVTITCERSSGDIGDSYVSWYQQKPGKAPKNVIYADDQRPSGVPSRFSGSGSGNSASLTISSLQPEDFATYFCQSYDINIDIVFGQGTKVEIKGGGSGRTVAAPSVFIFPPSDEQLKSGTASVVCLLNNFYPREAKVQWKVDNALQSGNSQESVTEQDSKDSTYSLSSTLTLSKADYEKHKVYACEVTHQGLSSPVTKSFNRGEC
> 5 | CODV003 cross-over DVD-Ig (PR-1565044) (bispecific antibody, human IgG1, kappa, L234A L235A) heavy: not shown light: DFQLTQSPSSLSASVGDRVTITCERSSGDIGDSYVSWYQQKPGKAPKNVIYADDQRPSGVPSRFSGSGSGNSASLTISSLQPEDFATYFCQSYDINIDIVFGQGTKVEIKGGGSGGGDIQMTQSPSSLSASVGDRVTITCSASQDISNYLNWYQQKPGKAPKVLIYFTSSLHSGVPSRFSGSGSGTDFTLTISSLQPEDFATYYCQQYSTVPWTFGQGTKVEIKGGGSGRTVAAPSVFIFPPSDEQLKSGTASVVCLLNNFYPREAKVQWKVDNALQSGNSQESVTEQDSKDSTYSLSSTLTLSKADYEKHKVYACEVTHQGLSSPVTKSFNRGEC
> 5 | CODV005 cross-over DVD-Ig (PR-1565083) (bispecific antibody, human IgG1, kappa, L234A L235A) heavy: not shown light: DFQLTQSPSSLSASVGDRVTITCERSSGDIGDTYVSWYQQKPGKAPKNVIYGNDQRPSGVPSRFSGSGSGNSATLTISSLQPEDFATYFCQSYDSDIDIVFGQGTKVEIKGGGSGGGDTQLTQSPSSLSASVGDRVTISCRASESVSTHMHWYQQKPGKAPKLLIYGASNLESGVPSRFSGSGSGTDFTLTISSLQPEDFATYFCQQSWNDPFTFGQGTKVEIKGGGSGRTVAAPSVFIFPPSDEQLKSGTASVVCLLNNFYPREAKVQWKVDNALQSGNSQESVTEQDSKDSTYSLSSTLTLSKADYEKHKVYACEVTHQGLSSPVTKSFNRGEC
> 5 | CODV007 cross-over DVD-Ig (PR-1565085) (bispecific antibody, human IgG1, kappa, L234A L235A) heavy: not shown light: DFQLTQSPSSLSASVGDRVTITCERSSGDIGDSYVSWYQQKPGKAPKNVIYADDQRPSGVPSRFSGSGSGNSASLTISSLQPEDFATYFCQSYDINIDIVFGQGTKVEIKGGGSGGGDTQLTQSPSSLSASVGDRVTISCRASESVSTHMHWYQQKPGKAPKLLIYGASNLESGVPSRFSGSGSGTDFTLTISSLQPEDFATYFCQQSWNDPFTFGQGTKVEIKGGGSGRTVAAPSVFIFPPSDEQLKSGTASVVCLLNNFYPREAKVQWKVDNALQSGNSQESVTEQDSKDSTYSLSSTLTLSKADYEKHKVYACEVTHQGLSSPVTKSFNRGEC
0.298 | 4G8.3-GS(11)-9E8.4 (g) DVD-Ig (PR-1572103) (bispecific antibody, human IgG1, kappa, L234A L235A) heavy: EVQLVQSGSELKKPGASVKVSCKASGYTFTNYGMYWVRQAPGQGLEWMGWINTETGKPTYADDFKGRFVFSLDTSVSTAYLQISSLKAEDTAVYYCARTNYYYRSYIFYFDYWGQGTMVTVSSGGGGSGGGGSEVTLRESGPALVKPTQTLTLTCTFSGFSLSTYGMGVGWIRQPPGKALEWLANIWWDDDKYYNPSLKNRLTISKDTSKNQVVLTMTNMDPVDTATYYCARIESIGTTYSFDYWGQGTMVTVSSASTKGPSVFPLAPSSKSTSGGTAALGCLVKDYFPEPVTVSWNSGALTSGVHTFPAVLQSSGLYSLSSVVTVPSSSLGTQTYICNVNHKPSNTKVDKKVEPKSCDKTHTCPPCPAPEAAGGPSVFLFPPKPKDTLMISRTPEVTCVVVDVSHEDPEVKFNWYVDGVEVHNAKTKPREEQYNSTYRVVSVLTVLHQDWLNGKEYKCKVSNKALPAPIEKTISKAKGQPREPQVYTLPPSREEMTKNQVSLTCLVKGFYPSDIAVEWESNGQPENNYKTTPPVLDSDGSFFLYSKLTVDKSRWQQGNVFSCSVMHEALHNAYTQKSLSLSPGK light: DTVLTQSPATLSLSPGERATLSCRASESVSTHMHWYQQKPGQAPRLLIYGASNLESGVPARFSGSGSGTDFTLTISSLEPEDFAVYFCQQSWNDPFTFGQGTKLEIKRGGSGGGGSGGEFVLTQSPGTLSLSPGERATLSCERSSGDIGDSYVSWYQQKPGQAPRLVIYADDQRPSGIPDRFSGSGSGTDFTLTISRLEPEDFAVYYCQSYDINIDIVFGGGTKVEIKRTVAAPSVFIFPPSDEQLKSGTASVVCLLNNFYPREAKVQWKVDNALQSGNSQESVTEQDSKDSTYSLSSTLTLSKADYEKHKVYACEVTHQGLSSPVTKSFNRGEC
0.095 | 4G8.3-GS(noR)-9E8.4 (g) DVD-Ig (PR-1572104) (bispecific antibody, human IgG1, kappa, L234A L235A) heavy: EVQLVQSGSELKKPGASVKVSCKASGYTFTNYGMYWVRQAPGQGLEWMGWINTETGKPTYADDFKGRFVFSLDTSVSTAYLQISSLKAEDTAVYYCARTNYYYRSYIFYFDYWGQGTMVTVSSGGGGSGGGGSEVTLRESGPALVKPTQTLTLTCTFSGFSLSTYGMGVGWIRQPPGKALEWLANIWWDDDKYYNPSLKNRLTISKDTSKNQVVLTMTNMDPVDTATYYCARIESIGTTYSFDYWGQGTMVTVSSASTKGPSVFPLAPSSKSTSGGTAALGCLVKDYFPEPVTVSWNSGALTSGVHTFPAVLQSSGLYSLSSVVTVPSSSLGTQTYICNVNHKPSNTKVDKKVEPKSCDKTHTCPPCPAPEAAGGPSVFLFPPKPKDTLMISRTPEVTCVVVDVSHEDPEVKFNWYVDGVEVHNAKTKPREEQYNSTYRVVSVLTVLHQDWLNGKEYKCKVSNKALPAPIEKTISKAKGQPREPQVYTLPPSREEMTKNQVSLTCLVKGFYPSDIAVEWESNGQPENNYKTTPPVLDSDGSFFLYSKLTVDKSRWQQGNVFSCSVMHEALHNAYTQKSLSLSPGK light: DTVLTQSPATLSLSPGERATLSCRASESVSTHMHWYQQKPGQAPRLLIYGASNLESGVPARFSGSGSGTDFTLTISSLEPEDFAVYFCQQSWNDPFTFGQGTKLEIKGGSGGGGSGGEFVLTQSPGTLSLSPGERATLSCERSSGDIGDSYVSWYQQKPGQAPRLVIYADDQRPSGIPDRFSGSGSGTDFTLTISRLEPEDFAVYYCQSYDINIDIVFGGGTKVEIKRTVAAPSVFIFPPSDEQLKSGTASVVCLLNNFYPREAKVQWKVDNALQSGNSQESVTEQDSKDSTYSLSSTLTLSKADYEKHKVYACEVTHQGLSSPVTKSFNRGEC
> 5 | CODV006 cross-over DVD-Ig (PR-1565084) (bispecific antibody, human IgG1, kappa, L234A L235A) heavy: not shown light: DTQLTQSPSSLSASVGDRVTISCRASESVSTHMHWYQQKPGKAPKLLIYGASNLESGVPSRFSGSGSGTDFTLTISSLQPEDFATYFCQQSWNDPFTFGQGTKVEIKGGGSGGGDFQLTQSPSSLSASVGDRVTITCERSSGDIGDTYVSWYQQKPGKAPKNVIYGNDQRPSGVPSRFSGSGSGNSATLTISSLQPEDFATYFCQSYDSDIDIVFGQGTKVEIKGGGSGRTVAAPSVFIFPPSDEQLKSGTASVVCLLNNFYPREAKVQWKVDNALQSGNSQESVTEQDSKDSTYSLSSTLTLSKADYEKHKVYACEVTHQGLSSPVTKSFNRGEC
> 5 | CODV008 cross-over DVD-Ig (PR-1565086) (bispecific antibody, human IgG1, kappa, L234A L235A) heavy: not shown light: DTQLTQSPSSLSASVGDRVTISCRASESVSTHMHWYQQKPGKAPKLLIYGASNLESGVPSRFSGSGSGTDFTLTISSLQPEDFATYFCQQSWNDPFTFGQGTKVEIKGGGSGGGDFQLTQSPSSLSASVGDRVTITCERSSGDIGDSYVSWYQQKPGKAPKNVIYADDQRPSGVPSRFSGSGSGNSASLTISSLQPEDFATYFCQSYDINIDIVFGQGTKVEIKGGGSGRTVAAPSVFIFPPSDEQLKSGTASVVCLLNNFYPREAKVQWKVDNALQSGNSQESVTEQDSKDSTYSLSSTLTLSKADYEKHKVYACEVTHQGLSSPVTKSFNRGEC
